B1: pBTM-APC–ARM (residues 308–789), two-hybrid bait [human] / Amer1-A2 (murine, residues 388–551), two-hybrid prey [murine] (parent complex)
chain 1: LGTKVEMVYSLLSMLGTHDKDDMSRTLLAMSSSQDSCISMRQSGCLPLLIQLLHGNDKDSVLLGNSRGSKEARARASAALHNIIHSQPDDKRGRREIRVLHLLEQIRAYCETCWEWQEAHEPGMDQDKNPMPAPVEHQICPAVCVLMKLSFDEEHRHAMNELGGLQAIAELLQVDCEMYGLTNDHYSITLRRYAGMALTNLTFGDVANKATLCSMKGCMRALVAQLKSESEDLQQVIASVLRNLSWRADVNSKKTLREVGSVKALMECALEVKKESTLKSVLSALWNLSAHCTENKADICAVDGALAFLVGTLTYRSQTNTLAIIESGGGILRNVSSLIATNEDHRQILRENNCLQTLLQHLKSHSLTIVSNACGTLWNLSARNPKDQEALWDMGAVSMLKNLIHSKHKMIAMGSAAALRNLMANRPAKYKDANIMSPGSSLPSLHVRKQKALEAELDAQHLSETFDNIDNLSPKASHRSKQ
chain 2: EEEEEEEEEEEEEEEEEEEEEELLEDEEEVKDGEENDDLEYLWASAQIYPRFNMNLGYHTAISPSHQGYMLLDPVQSYPNLGLGELLTPQSDQQESAPNSDEGYYDSTTPGFEDDSGEALGLAHRDCLPRDSYSGDALYEFYEPDDSLEHSPPGDDCLYDLRGR
B2: Amer1-A4 (human, residues 337–455), two-hybrid prey [human] / pBTM-APC–ARM (residues 308–789), two-hybrid bait [human] (parent complex)
chain 1: MDSMTDSMASGGQRANRDGTKRSSCLVTYQGGGEEMALPDDDDEEEEEEEEVELEEEEEEVKEEEEDDDLEYLWETAQMYPRPNMNLGYHPTTSPGHHGYMLLDPVRSYPGLAPGELLT
chain 2: B1 chain 1
B3: Amer1-A2 (human, residues 380–531), two-hybrid prey [human] / pBTM-APC–ARM (residues 308–789), two-hybrid bait [human] (parent complex)
chain 1: EEEEEEEEVELEEEEEEVKEEEEDDDLEYLWETAQMYPRPNMNLGYHPTTSPGHHGYMLLDPVRSYPGLAPGELLTPQSDQQESAPNSDEGYYDSTTPGFEDDSGEALGLVRRDCLPRDSYSGDALYEFYEPDDSLENSPPGDDCLYDLHGR
chain 2: B1 chain 1
B4: Amer1-A1 (human, residues 280–369), two-hybrid prey [human] / pBTM-APC–ARM (residues 308–789), two-hybrid bait [human] (parent complex)
chain 1: SLEEPHSPETGEKVVAGEVNPPNGPVGDPLSLLFGDVTSLKSFDSLTGCGDIIAEQDMDSMTDSMASGGQRANRDGTKRSSCLVTYQGGG
chain 2: B1 chain 1

Variants of: B1
Assay: yeast two-hybrid assay (relative β-galactosidase reporter activity); parent: 100

percent of parent	Variant
0.12%	chain 1 LGTKVEMVYSLLSMLGTHDKDDMSRTLLAMSSSQDSCISMRQSGCLPLLIQLLHGNDKDSVLLGNSRGSKEARARASAALHNIIHSQPDDKRGRREIRVLHLLEQIRAYCETCWEWQEAHEPGMDQDKNPMPAPVEHQICPAVCVLMKLSFDEEHRHAMNELGGLQAIAELLQVDCEMYGLTNDHYSITLRRYAGMALTNLTFGDVANKATLCSMKGCMRALVAQLKSESEDLQQVIASVLRKLSWRADVNSKKTLREVGSVKALMECALEVKKESTLKSVLSALWNLSAHCTENKADICAVDGALAFLVGTLTYRSQTNTLAIIESGGGILRNVSSLIATNEDHRQILRENNCLQTLLQHLKSHSLTIVSNACGTLWNLSARNPKDQEALWDMGAVSMLKNLIHSKHKMIAMGSAAALRNLMANRPAKYKDANIMSPGSSLPSLHVRKQKALEAELDAQHLSETFDNIDNLSPKASHRSKQ [chain 1 N243K]
0.06%	chain 1 LGTKVEMVYSLLSMLGTHDKDDMSRTLLAMSSSQDSCISMRQSGCLPLLIQLLHGNDKDSVLLGNSRGSKEARARASAALHNIIHSQPDDKRGRREIRVLHLLEQIRAYCETCWEWQEAHEPGMDQDKNPMPAPVEHQICPAVCVLMKLSFDEEHRHAMNELGGLQAIAELLQVDCEMYGLTNDHYSITLRRYAGMALTNLTFGDVANKATLCSMKGCMRALVAQLKSESEDLQQVIASVLENLSWRADVNSKKTLREVGSVKALMECALEVKKESTLKSVLSALWNLSAHCTENKADICAVDGALAFLVGTLTYRSQTNTLAIIESGGGILRNVSSLIATNEDHRQILRENNCLQTLLQHLKSHSLTIVSNACGTLWNLSARNPKDQEALWDMGAVSMLKNLIHSKHKMIAMGSAAALRNLMANRPAKYKDANIMSPGSSLPSLHVRKQKALEAELDAQHLSETFDNIDNLSPKASHRSKQ [chain 1 R242E]
0.33%	chain 1 LGTKVEMVYSLLSMLGTHDKDDMSRTLLAMSSSQDSCISMRQSGCLPLLIQLLHGNDKDSVLLGNSRGSKEARARASAALHNIIHSQPDDKRGRREIRVLHLLEQIRAYCETCWEWQEAHEPGMDQDKNPMPAPVEHQICPAVCVLMKLSFDEEHRHAMNELGGLQAIAELLQVDCEMYGLTNDHYSITLRRYAGMALTKLTFGDVANKATLCSMKGCMRALVAQLKSESEDLQQVIASVLRNLSWRADVNSKKTLREVGSVKALMECALEVKKESTLKSVLSALWNLSAHCTENKADICAVDGALAFLVGTLTYRSQTNTLAIIESGGGILRNVSSLIATNEDHRQILRENNCLQTLLQHLKSHSLTIVSNACGTLWNLSARNPKDQEALWDMGAVSMLKNLIHSKHKMIAMGSAAALRNLMANRPAKYKDANIMSPGSSLPSLHVRKQKALEAELDAQHLSETFDNIDNLSPKASHRSKQ [chain 1 N200K]
87.8%	chain 1 LGTKVEMVYSLLSMLGTHDKDDMSRTLLAMSSSQDSCISMRQSGCLPLLIQLLHGNDKDSVLLGNSRGSKEARARASAALHNIIHSQPDDKRGRREIRVLHLLEQIRAYCETCWEWQEAHEPGMDQDKNPMPAPVEHQICPAVCVLMKLSFDEEHRHAMNELGGLQAIAELLQVDCEMYGLTNDHYSITLRRYAGMALTNLTFGDVANKATLCSMKGCMRALVAQLKSESEDLQQVIASVLRNLSWRADVNSKKTLREVGSVKALMECALEVKKESTLKSVLSALWNLSAHCTENKADICAVDGALAFLVGTLTYRSQTNTLAIIESGGGILRNVSSLIATNEDHRQILRENNCLQTLLQHLKSHSLTIVSNACGTLWNLSARNPKDQEALWDMGAVSMLKNLIHSKHKKIAMGSAAALRNLMANRPAKYKDANIMSPGSSLPSLHVRKQKALEAELDAQHLSETFDNIDNLSPKASHRSKQ [chain 1 M410K]
0.27%	chain 1 LGTKVEMVYSLLSMLGTHDKDDMSRTLLAMSSSQDSCISMRQSGCLPLLIQLLHGNDKDSVLLGNSRGSKEARARASAALHNIIHSQPDDKRGRREIRVLHLLEQIRAYCETCWEWQEAHEPGMDQDKNPMPAPVEHQICPAVCVLMKLSFDEEHRHAMNELGGLQAIAELLQVDCEMYGLTNDHYSITLRRYAGMALTNLTFGDVANEATLCSMKGCMRALVAQLKSESEDLQQVIASVLRNLSWRADVNSKKTLREVGSVKALMECALEVKKESTLKSVLSALWNLSAHCTENKADICAVDGALAFLVGTLTYRSQTNTLAIIESGGGILRNVSSLIATNEDHRQILRENNCLQTLLQHLKSHSLTIVSNACGTLWNLSARNPKDQEALWDMGAVSMLKNLIHSKHKMIAMGSAAALRNLMANRPAKYKDANIMSPGSSLPSLHVRKQKALEAELDAQHLSETFDNIDNLSPKASHRSKQ [chain 1 K209E]
75.2%	chain 1 LGTKVEMVYSLLSMLGTHDKDDMSRTLLAMSSSQDSCISMRQSGCLPLLIQLLHGNDKDSVLLGNSRGSKEARARASAALHNIIHSQPDDKRGRREIRVLHLLEQIRAYCETCWEWQEAHEPGMDQDKNPMPAPVEHQICPAVCVLMKLSFDEEHRHAMNELGGLQAIAELLQVDCEMYGLTNDHYSITLRRYAGMALTNLTFGDVANKATLCSMKGCMRALVAQLKSESEDLQQVIASVLRNLSWRADVNSKKTLREVGSVKALMECALEVKKESTLKSVLSALWNLSAHCTENKADICAVDGALAFLVGTLTYRSQTNTLAIIESGGGILRNVSSLIATNEDHRQILRENNCLQTLLQHLKSHSLTIVSNACGTLWNLSARNPKDQEALWDMGAVSMLKNLIHSKHKMIAMGSAAALENLMANRPAKYKDANIMSPGSSLPSLHVRKQKALEAELDAQHLSETFDNIDNLSPKASHRSKQ [chain 1 R420E]

Variants of: B2
Assay: as above

percent of parent	Variant
0.85%	chain 1 MDSMTDSMASGGQRANRDGTKRSSCLVTYQGGGKEMALPDDDDEEEEEEEEVELEEEEEEVKEEEEDDDLEYLWETAQMYPRPNMNLGYHPTTSPGHHGYMLLDPVRSYPGLAPGELLT

Variants of: B3
Assay: as above

percent of parent	Variant
0.28%	chain 1 EEEEEEEEVELEEEEEEVKEEEEDDDLEYLWETAQMYPRPNMNLGYHPTTSPGHHGYMLLDPVRSYPGLAPGELLTPQSDQQESAPNSDEGYYDSTTPGFEDDSGEALGLVRRDCLPRKSYSGDALYEFYEPDDSLENSPPGDDCLYDLHGR
0.17%	chain 1 EEEEEEEEVELEEEEEEVKEEEEDDDLEYLWETAQMYPRPNMNLGYHPTTSPGHHGYMLLDPVRSYPGLAPGELLTPQSDQQESAPNSDEGYYDSTTPGFEDDSGEALGLVRRDCLPRDSYSGKALYEFYEPDDSLENSPPGDDCLYDLHGR

Variants of: B4
Assay: as above

percent of parent	Variant
0%	chain 1 SLEEPHSPETGEKVVAGEVNPPNGPVGDPLSLLFGDVTSLKSFDSLTGCGKIIAEQDMDSMTDSMASGGQRANRDGTKRSSCLVTYQGGG
31.9%	chain 1 SLEEPHSPETGEKVVAGEVNPPNGPVGDPLSLLFGDVTSLKSFKSLTGCGDIIAEQDMDSMTDSMASGGQRANRDGTKRSSCLVTYQGGG
65.2%	chain 1 SLEEPHSPETGEKVVAGEVNPPNGPVGDPLSLLFGDVTSLKSFDSLRGCGDIIAEQDMDSMTDSMASGGQRANRDGTKRSSCLVTYQGGG
